# Test results as given in patent US20240116985A1, “STAPLED PEPTIDES AND METHODS THEREOF” (priority 2020, published 2024).
# Starred links: 1 amine or outer side, 2 acyl side, 3 side chain; linkers in the order of their positions; H or OH if unused. Positions of bridges follow the written chain, without caps; N, C: chain ends. Non-standard residues stand in square brackets, D forms with d. Groups on a side chain read outwards from the residue. Primed or numbered codes have the meaning given here. *: point of attachment. PyrS2″ = (S)-3-amino-1-((pent-4-en-1-yloxy)carbonyl)pyrrolidine-3-carboxylic acid (stapling residue), C=CCCCOC(=O)N1CC[C@@](N[*:1])(C(=O)[*:2])C1; B5(4) = 2,2-bis(4-pentenyl)glycine = 2-amino-2-(pent-4-en-1-yl)hept-6-enoic acid (stitching residue), C=CCCCC(CCCC=C)(N[*:1])C(=O)[*:2]; B5(5) = 2,2-bis(4-pentenyl)glycine, 2-amino-2-(pent-4-en-1-yl)hept-6-enoic acid (stitching residue), C=CCCCC(CCCC=C)(N[*:1])C(=O)[*:2]; PyrS2 = (S)-3-amino-1-((pent-4-en-1-yloxy)carbonyl)pyrrolidine-3-carboxylic acid, C=CCCCOC(=O)N1CC[C@@](N[*:1])(C(=O)[*:2])C1; B5(27) = 2-amino-2-(pent-4-en-1-yl)hept-6-enoic acid (two alkene side-chain arms), C=CCCCC(CCCC=C)(N[*:1])C(=O)[*:2]; MePpzAsn = (S)-2-amino-4-(4-methylpiperazin-1-yl)-4-oxobutanoic acid, CN1CCN(C(=O)C[C@H](N[*:1])C(=O)[*:2])CC1; F2PipNva = (S)-2-amino-5-(4,4-difluoropiperidin-1-yl)pentanoic acid, O=C([C@H](CCCN1CCC(F)(F)CC1)N[*:1])[*:2]; F2PipAbu = (S)-2-amino-4-(4,4-difluoropiperidin-1-yl)butanoic acid, O=C([C@H](CCN1CCC(F)(F)CC1)N[*:1])[*:2]; MePpzNva = (S)-2-amino-5-(4-methylpiperazin-1-yl)pentanoic acid, CN1CCN(CCC[C@H](N[*:1])C(=O)[*:2])CC1; MePpzAbu = (S)-2-amino-4-(4-methylpiperazin-1-yl)butanoic acid, CN1CCN(CC[C@H](N[*:1])C(=O)[*:2])CC1; 4TriA = (S)-2-amino-3-(1H-1,2,3-triazol-4-yl)propanoic acid, O=C([C@H](Cc1c[nH]nn1)N[*:1])[*:2]; Lithocholoyl = C[C@H](CCC(=O)*)[C@H]1CC[C@H]2[C@@H]3CC[C@@H]4C[C@H](O)CC[C@]4(C)[C@H]3CC[C@]12C; MorphAsn = (S)-2-amino-4-morpholino-4-oxobutanoic acid, O=C(C[C@H](N[*:1])C(=O)[*:2])N1CCOCC1; B5(3) = 2,2-bis(4-pentenyl)glycine (stitching residue), C=CCCCC(CCCC=C)(N[*:1])C(=O)[*:2]; Me3AdamantC = 3,5,7-trimethyladamantane-1-carbonyl, CC12CC3(C)CC(C)(C1)CC(C(=O)*)(C2)C3; MorphAbu = (S)-2-amino-4-morpholinobutanoic acid, O=C([C@H](CCN1CCOCC1)N[*:1])[*:2]; Phe(4-(3-Py)) = N[C@@H](Cc1ccc(-c2cccnc2)cc1)C(=O)O; Nva(5-morpholino) = N[C@@H](CCCN1CCOCC1)C(=O)O; Bta = N[C@@H](Cc1csc2ccccc12)C(=O)O; αAllylPro = C=CC[C@@]1(C(=O)O)CCCN1; tBuAla = CC(C)(C)C[C@H](N)C(=O)O; 3Thi = N[C@@H](Cc1ccsc1)C(=O)O; S8 = C=CCCCCCC[C@](C)(N)C(=O)O; hSer = N[C@@H](CCO)C(=O)O; Nle = CCCC[C@H](N)C(=O)O; PEG2′ = not defined here
# Target: full-length beta-Catenin (Uniprot ID P35222) (Homo sapiens (Human)) (UniProt P35222)
# Assay: fluorescence polarization competition; displacement of 5FAM-TCF4(10-53) from full-length beta-catenin
row,Binder,IC50 [nM]
1,"Ac-[αAllylPro]DN[B5(5)]DDAAFL[PyrS2″][3Thi][Bta]Q-NH2 (staple 1-4, 4-11) [I-1517: Ac-PL3-Asp-Asn-B5-Asp-Asp-Ala-Ala-Phe-Leu-PyrS2-3Thi-BztA-Gln-NH2]",32
2,"Ac-[αAllylPro]D[tBuAla][B5(5)]DDAK(Lithocholoyl)FL[PyrS2][3Thi][Bta]Q-NH2 (staple 1-4, 4-11) [I-1473]",224
3,"Ac-[αAllylPro]D[tBuAla][B5(4)]DDAAFL[PyrS2″][3Thi][Bta]QK([PEG2′-Lithocholoyl])-NH2 (staple 1-4, 4-11) [I-1478]",75
4,"Ac-[αAllylPro]DT[B5(5)]DDAAFL[PyrS2″][3Thi][Bta]Q-NH2 (staple 1-4, 4-11) [I-1515: Ac-PL3-Asp-Thr-B5-Asp-Asp-Ala-Ala-Phe-Leu-PyrS2-3Thi-BztA-Gln-NH2]",24
5,"Ac-[αAllylPro]D[tBuAla][B5(27)]DDA[MorphAsn]FL[PyrS2][3Thi][Bta]Q-NH2 (staple 1-4, 4-11) [I-1507: Ac-PL3-Asp-Npg-B5-Asp-Asp-Ala-MorphAsn-Phe-Leu-PyrS2-3Thi-BztA-Gln-NH2]",30
6,"Ac-[αAllylPro]D[tBuAla][B5(3)]DDAAFL[PyrS2″][3Thi][Bta]N-NH2 (staple 1-4, 4-11) [I-1492]",5
7,"Ac-[αAllylPro]DF[B5(27)]DDAAFL[PyrS2][3Thi][Bta][hSer]-NH2 (staple 1-4, 4-11) [I-1510: Ac-PL3-Asp-Phe-B5-Asp-Asp-Ala-Ala-Phe-Leu-PyrS2-3Thi-BztA-Hse-NH2]",10
8,"Ac-[αAllylPro]DY[B5(5)]DDAAFL[PyrS2″][3Thi][Bta][hSer]-NH2 (staple 1-4, 4-11) [I-1512: Ac-PL3-Asp-Tyr-B5-Asp-Asp-Ala-Ala-Phe-Leu-PyrS2-3Thi-BztA-Hse-NH2]",12
9,"Ac-[αAllylPro]D[tBuAla][B5(27)]DDAAFL[PyrS2][3Thi][Bta]T-NH2 (staple 1-4, 4-11) [I-1494]",5
10,"Ac-[αAllylPro]DS[B5(5)]DDAAFL[PyrS2″][3Thi][Bta]Q-NH2 (staple 1-4, 4-11) [I-1513: Ac-PL3-Asp-Ser-B5-Asp-Asp-Ala-Ala-Phe-Leu-PyrS2-3Thi-BztA-Gln-NH2]",21
11,"Ac-[αAllylPro]D[tBuAla][B5(3)]DDAAF[F2PipNva][PyrS2″][3Thi][Bta]Q-NH2 (staple 1-4, 4-11) [I-1486]",5
12,"Ac-[αAllylPro]DT[B5(5)]DDAAFL[PyrS2″][3Thi][Bta][hSer]-NH2 (staple 1-4, 4-11) [I-1516: Ac-PL3-Asp-Thr-B5-Asp-Asp-Ala-Ala-Phe-Leu-PyrS2-3Thi-BztA-Hse-NH2]",30
13,"Ac-[αAllylPro]D[tBuAla][B5(4)]DDA[MePpzAsn]FL[PyrS2][3Thi][Bta]Q-NH2 (staple 1-4, 4-11) [I-1508: Ac-PL3-Asp-Npg-B5-Asp-Asp-Ala-MePpzAsn-Phe-Leu-PyrS2-3Thi-BztA-Gln-NH2]",87
14,"Ac-[αAllylPro]DY[B5(27)]DDAAFL[PyrS2][3Thi][Bta]Q-NH2 (staple 1-4, 4-11) [I-1511: Ac-PL3-Asp-Tyr-B5-Asp-Asp-Ala-Ala-Phe-Leu-PyrS2-3Thi-BztA-Gln-NH2]",5
15,"Ac-[αAllylPro]D[tBuAla][B5(5)]DDAK(Me3AdamantC)FL[PyrS2″][3Thi][Bta]Q-NH2 (staple 1-4, 4-11) [I-1475]",113
16,"Ac-[αAllylPro]D[tBuAla][B5(27)]DDAAFL[PyrS2][3Thi][Bta]V-NH2 (staple 1-4, 4-11) [I-1495]",24
17,"Ac-[αAllylPro]D[tBuAla][B5(4)]DDAK([PEG2′-Me3AdamantC])FL[PyrS2″][3Thi][Bta]Q-NH2 (staple 1-4, 4-11) [I-1476]",16
18,"Ac-[αAllylPro]DS[B5(4)]DDAAFL[PyrS2″][3Thi][Bta][hSer]-NH2 (staple 1-4, 4-11) [I-1514: Ac-PL3-Asp-Ser-B5-Asp-Asp-Ala-Ala-Phe-Leu-PyrS2-3Thi-BztA-Hse-NH2]",27
19,"Ac-[αAllylPro]D[tBuAla][B5(27)]DDAAFL[PyrS2][3Thi][Bta]W-NH2 (staple 1-4, 4-11) [I-1497]",50
20,"Ac-[αAllylPro]DN[B5(5)]DDAAFL[PyrS2″][3Thi][Bta][hSer]-NH2 (staple 1-4, 4-11) [I-1518: Ac-PL3-Asp-Asn-B5-Asp-Asp-Ala-Ala-Phe-Leu-PyrS2-3Thi-BztA-Hse-NH2]",23
21,"Ac-[αAllylPro]D[tBuAla][B5(27)]DDA[MorphAbu]FL[PyrS2][3Thi][Bta]Q-NH2 (staple 1-4, 4-11) [I-1504]",46

row,Binder,IC50 [nM]
1,"Ac-[αAllylPro]D[tBuAla][B5(5)]DDAAFL[PyrS2″][3Thi][Bta]QK(Me3AdamantC)-NH2 (staple 1-4, 4-11) [I-1479]",173
2,"Ac-[αAllylPro]D[tBuAla][B5(4)]DDA[MePpzAbu]FL[PyrS2][3Thi][Bta]Q-NH2 (staple 1-4, 4-11) [I-1506: Ac-PL3-Asp-Npg-B5-Asp-Asp-Ala-MePpzAbu-Phe-Leu-PyrS2-3Thi-BztA-Gln-NH2]",89
3,"Ac-[αAllylPro]D[tBuAla][B5(4)]DDA[MePpzNva]FL[PyrS2][3Thi][Bta]Q-NH2 (staple 1-4, 4-11) [I-1503]",38
4,"Ac-[αAllylPro]D[tBuAla][B5(3)]DDAAF[MorphAsn][PyrS2″][3Thi][Bta]Q-NH2 (staple 1-4, 4-11) [I-1487]",7
5,"Ac-[αAllylPro]D[tBuAla][B5(3)]DDAAF[Nva(5-morpholino)][PyrS2″][3Thi][Bta]Q-NH2 (staple 1-4, 4-11) [I-1485]",7
6,"Ac-[αAllylPro]D[tBuAla][B5(3)]DDAAF[MePpzAsn][PyrS2″][3Thi][Bta]Q-NH2 (staple 1-4, 4-11) [I-1488]",6
7,"Ac-[αAllylPro]D[tBuAla][B5(4)]DDAK([PEG2′-Lithocholoyl])FL[PyrS2″][3Thi][Bta]Q-NH2 (staple 1-4, 4-11) [I-1474]",41
8,"Ac-[αAllylPro]D[tBuAla][B5(3)]DDAAFL[PyrS2″][3Thi][Bta]QK([PEG2′-Me3AdamantC])-NH2 (staple 1-4, 4-11) [I-1480]",37
9,"Ac-[αAllylPro]D[Nle][B5(5)]DEAAFQ[S8]F[Bta]Q-NH2 (staple 1-4, 4-11) [I-1522: Ac-PL3-Asp-nLeu-B5-Asp-Glu-Ala-Ala-Phe-Gln-S8-Phe-BztA-Gln-NH2]",6
10,"Ac-[αAllylPro]D[tBuAla][B5(3)]DD[MorphAsn]AFL[PyrS2″][3Thi][Bta]Q-NH2 (staple 1-4, 4-11) [I-1483]",22
11,"Ac-[αAllylPro]D[tBuAla][B5(27)]DDAAFL[PyrS2][3Thi][Bta]F-NH2 (staple 1-4, 4-11) [I-1496]",51
12,"Ac-[αAllylPro]D[tBuAla][B5(5)]DDAAFL[PyrS2″][3Thi][Bta]QK(Lithocholoyl)-NH2 (staple 1-4, 4-11) [I-1477]",148
13,"Ac-[αAllylPro]D[tBuAla][B5(27)]DDAAFL[PyrS2][3Thi][Bta][4TriA]-NH2 (staple 1-4, 4-11) [I-1498]",48
14,"Ac-[αAllylPro]D[tBuAla][B5(27)]DDA[F2PipAbu]FL[PyrS2][3Thi][Bta]Q-NH2 (staple 1-4, 4-11) [I-1505: Ac-PL3-Asp-Npg-B5-Asp-Asp-Ala-F2PipAbu-Phe-Leu-PyrS2-3Thi-BztA-Gln-NH2]",39
15,"Ac-[αAllylPro]D[tBuAla][B5(3)]DD[Nva(5-morpholino)]AFL[PyrS2″][3Thi][Bta]Q-NH2 (staple 1-4, 4-11) [I-1481]",7
16,"Ac-[αAllylPro]D[tBuAla][B5(3)]DD[MePpzAsn]AFL[PyrS2″][3Thi][Bta]Q-NH2 (staple 1-4, 4-11) [I-1484]",30
17,"Ac-[αAllylPro]D[tBuAla][B5(27)]DDA[F2PipNva]FL[PyrS2][3Thi][Bta]Q-NH2 (staple 1-4, 4-11) [I-1502]",34
18,"Ac-[αAllylPro]D[Nle][B5(5)]DEAAFQ[S8]F[Bta]Q-NH2 (staple 1-4, 4-11; also: staple isomer, earlier eluting HPLC peak) [I-1521: Ac-PL3-Asp-nLeu-B5-Asp-Glu-Ala-Ala-Phe-Gln-S8-Phe-BztA-Gln-NH2]",16
19,"Ac-[αAllylPro]D[tBuAla][B5(3)]DD[F2PipNva]AFL[PyrS2″][3Thi][Bta]Q-NH2 (staple 1-4, 4-11) [I-1482]",7
20,"Ac-[αAllylPro]D[tBuAla][B5(3)]DD[Phe(4-(3-Py))]AFL[PyrS2″]F[Bta]Q-NH2 (staple 1-4, 4-11) [I-1489]",17
21,"Ac-[αAllylPro]D[tBuAla][B5(27)]DDA[Nva(5-morpholino)]FL[PyrS2][3Thi][Bta]Q-NH2 (staple 1-4, 4-11) [I-1501]",46
